Measurements published in publication PMC6363177, “R pyocin tail fiber structure reveals a receptor-binding domain with a lectin fold” (PLoS ONE, 2019).

B1: R2-subtype N-terminally truncated tail fiber fragment (R2-NTF) (domain or fragment)
chain: YVRVSYAANPSIREWLPWQRCDIGGSFTKEADGELPGGVNLDSMVTSGWWSQSFTAQAASGANYPIVRAGLLHVYAASSNFIYQTYQAYDGESFYFRCRHSNTWFPWRRMWHGGDFNPSDYLLKSGFYWNALPGKPATFPPSAHNHDVGQLTSGILPLARGGVGSNTAAGARSTIGAGVPATASLGASGWWRDNDTGLIRQWGQVTCPADADASITFPIPFPTLCLGGYANQTSAFHPGTDASTGFRGATTTTAVIRNGYFAQAVLSWEAFGR
notes: R2-subtype pyocin tail fiber PA0620 of Pseudomonas aeruginosa PAO1, residues Y419-R691; numbering relative to native PA0620; Cloned into pMCSG11 (LIC); 32.2 kDa printed; Removal of the tag before crystallisation is not mentioned; also called R2-subtype pyocin tail fiber distal region; PA0620 Y419-R691; source: E. coli BL21 (DE3), co-expressed with chaperone PA0621; in lysate for the Ni-IMAC …
B2: Selenomethionine-labelled R2-NTF (domain or fragment)
chain: B1 chain
modifications: selenomethionine in place of methionine
notes: R2-subtype pyocin tail fiber PA0620 of Pseudomonas aeruginosa PAO1, residues Y419-R691 (plasmid pMCSG11/R2-NTF, as m1); numbering relative to native PA0620; Same construct as m1, made in another host and labelled with selenomethionine for Se-SAD phasing; also called Sel-met R2-NTF; selenomethionine replaced R2-NTF; source: E. coli B834 (DE3) methionine auxotroph, co-expressed with PA0621 in M9 …

How the values were obtained:
[1] = molecular target: the molecule itself; assay: SEC; analytical Sepharose-200 10/300 column, elution volumes compared with SEC standards (Biorad); samples diluted to 1 mg/mL in 50mM Tris pH 8.0, 150mM NaCl, 5% glycerol
[2] = molecular target: the molecule itself; assay: crystal structure; vapor diffusion crystals at 16°C; trimer formed by crystallographic symmetry, also checked with PISA

Row | Protein | stoichiometry N [1] | stoichiometry N [2]
1 | B1 | 3 | 
2 | B2 |  | 3
